Substrate: N[C@@H](Cc1c[nH]c2ccccc12)C(=O)O
Experiment: HPLC-DAD quantitation of tryptamine, non-linear regression
Format: biochemical, Camptotheca acuminata
Details: 4 μM PLP, 0.16 μM enzyme, 50 mM phosphate buffer pH 7.6, 37°C

B1: CaTDC3 (Camptotheca acuminata) (protein)
chain: MGSLDSNYDTESPASVGQFNPLDPEEFRKQAHCIVDFIADYYKNIESYPVLSQVDPGYLHSRLPKNAPYRSEPFESILKDVQKDIIPGMTHWMSPNFFAYFPATVSSAAFVGEMLCTCFNSVGFNWLASPAATELEMVVIDWLANMLKLPKSFMFSGTGGGVLQGTTSEAILCTLIAARDRALEIVGVKNFNKLVVYGSDQTHSTYAKACKLAGILPCNIRSIPTTADSNFSVSPLLLRRAIEADKAAGMVPLYICATVGTTSTTAIDPLSSLADVANDYGVWFHVDAAYAGSACICPEFRHYLDGIERADSLSLSPHKWLLSYLDCCCLWVKSPSLLVKALSTDPEYLKNQPSESKSVVDYKDWQVGTGRRFKALRLWFVMRSYGVANLQSHIRTDVQMAKMFEGFVKSDPRFEILVPRVFSLVCFRLNPISGSDPTGTEALNRKLLDWVNSTGRVYMTHTKVGGIYMLRFAVGATLTEKRHVSSAWKLIKEGADVLLKED
notes: homodimer by homology model
Work on B1 yielded a Km of 48 ± 2 µM and a kcat of 25.6 min^–1.
